# According to patent US7582427B2, “Method of estimating drug metabolic activity by analyzing mutations in glucuronosyl transferase gene” (National University Corporation Shiga University of Medical …, priority 2002, dated 2009):
# T1: UGT1A1 (Homo sapiens, UniProt P22309, Y486D)
# T1 sequence (P22309 26-533 Y486D): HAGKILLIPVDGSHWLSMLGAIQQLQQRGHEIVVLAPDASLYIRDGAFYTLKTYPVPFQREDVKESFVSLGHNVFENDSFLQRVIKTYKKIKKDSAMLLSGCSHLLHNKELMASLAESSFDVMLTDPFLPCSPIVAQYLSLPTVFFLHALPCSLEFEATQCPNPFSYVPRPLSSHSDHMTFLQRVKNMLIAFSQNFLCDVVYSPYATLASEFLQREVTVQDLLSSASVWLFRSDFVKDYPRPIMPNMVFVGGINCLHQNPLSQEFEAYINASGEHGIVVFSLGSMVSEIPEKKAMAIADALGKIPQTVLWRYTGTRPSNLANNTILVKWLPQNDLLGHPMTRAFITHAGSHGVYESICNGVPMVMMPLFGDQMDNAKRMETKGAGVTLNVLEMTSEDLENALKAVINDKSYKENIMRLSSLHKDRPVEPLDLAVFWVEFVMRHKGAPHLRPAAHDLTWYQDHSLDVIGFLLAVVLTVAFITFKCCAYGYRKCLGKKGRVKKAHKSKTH
# Assays:
# UGT1A1 molecule = assay: UGT activity (glucuronidation) of recombinant UGT1A1 molecules, bilirubin as substrate; type: biochemical, human; details: relative to normal
# Excerpt: Further, it was shown that an abnormality of drug metabolism can be assayed for more effectively by combining this detection with detection of (a) mutation(s) in the regions of exons 1 to 4 other than the exon 5 region.
# UGT1A1 [1] = target: T1, UGT1A1; details: fraction of normal enzyme activity, background report; cited from earlier work
# UGT1A1 [2] = target: T1, UGT1A1; assay: Enzyme kinetics of glucuronidation of 2-amino-5-nitro-4-trifluoromethylphenol by UGT1A1, normal versus Y486D; type: biochemical
# Excerpt: 2-amino-5-nitro-4-trifluoromethylphenol is glucuronidated by UGT. The enzymatic reactions in glucuronidation by the enzymes of each of the isoforms UGT1A1 and UGT1A6 between their normal molecules and molecules with Y486D mutation were compared, respectively.
Molecule,UGT relative activity (glucronidation activity) (UGT1A1 molecule),enzyme activity relative to that of the normal enzyme (UGT1A1 [1]),maximum velocity relative to the maximum velocity of the wild type (UGT1A1 [2]; substrate 2-amino-5-nitro-4-trifluoromethylphenol),Km value relative to wild type (UGT1A1 [2]; with respect to 2-amino-5-nitro-4-trifluoromethylphenol),Km value relative to wild type (UGT1A1 [2]; with respect to UDP-glucuronate)
"Y486D (homozygous): recombinant UGT1A1 molecule with Y486D mutation (exon 5), tyrosine replaced with aspartic acid at position 486 (protein, UniProt P22309 26-533, looked up, variant Y486D, homozygous) UDP-glucuronosyltransferase …: HAGKILLIPVDGSHWLSMLGAIQQLQQRGHEIVVLAPDASLYIRDGAFYTLKTYPVPFQREDVKESFVSLGHNVFENDSFLQRVIKTYKKIKKDSAMLLSGCSHLLHNKELMASLAESSFDVMLTDPFLPCSPIVAQYLSLPTVFFLHALPCSLEFEATQCPNPFSYVPRPLSSHSDHMTFLQRVKNMLIAFSQNFLCDVVYSPYATLASEFLQREVTVQDLLSSASVWLFRSDFVKDYPRPIMPNMVFVGGINCLHQNPLSQEFEAYINASGEHGIVVFSLGSMVSEIPEKKAMAIADALGKIPQTVLWRYTGTRPSNLANNTILVKWLPQNDLLGHPMTRAFITHAGSHGVYESICNGVPMVMMPLFGDQMDNAKRMETKGAGVTLNVLEMTSEDLENALKAVINDKSYKENIMRLSSLHKDRPVEPLDLAVFWVEFVMRHKGAPHLRPAAHDLTWYQDHSLDVIGFLLAVVLTVAFITFKCCAYGYRKCLGKKGRVKKAHKSKTH",8%,1/13,about 12%,about half of that of the wild type,equal to that of the wild type
"P229Q (heterozygous): recombinant UGT1A1 molecule corresponding to heterozygous P229Q mutation (protein, UniProt P22309 26-533, looked up, variant P229Q, heterozygous, recombinant UGT1A1 molecule corresponding to heterozygous P229Q mutation) UDP-glucuronosyltransferase …: HAGKILLIPVDGSHWLSMLGAIQQLQQRGHEIVVLAPDASLYIRDGAFYTLKTYPVPFQREDVKESFVSLGHNVFENDSFLQRVIKTYKKIKKDSAMLLSGCSHLLHNKELMASLAESSFDVMLTDPFLPCSPIVAQYLSLPTVFFLHALPCSLEFEATQCPNPFSYVPRPLSSHSDHMTFLQRVKNMLIAFSQNFLCDVVYSQYATLASEFLQREVTVQDLLSSASVWLFRSDFVKDYPRPIMPNMVFVGGINCLHQNPLSQEFEAYINASGEHGIVVFSLGSMVSEIPEKKAMAIADALGKIPQTVLWRYTGTRPSNLANNTILVKWLPQNDLLGHPMTRAFITHAGSHGVYESICNGVPMVMMPLFGDQMDNAKRMETKGAGVTLNVLEMTSEDLENALKAVINDKSYKENIMRLSSLHKDRPVEPLDLAVFWVEFVMRHKGAPHLRPAAHDLTWYQYHSLDVIGFLLAVVLTVAFITFKCCAYGYRKCLGKKGRVKKAHKSKTH",15%,–,–,–,–
"Y486D (heterozygous): recombinant UGT1A1 molecule corresponding to heterozygous Y486D mutation (protein, UniProt P22309 26-533, looked up, variant Y486D, heterozygous, recombinant UGT1A1 molecule corresponding to heterozygous Y486D mutation) UDP-glucuronosyltransferase …: HAGKILLIPVDGSHWLSMLGAIQQLQQRGHEIVVLAPDASLYIRDGAFYTLKTYPVPFQREDVKESFVSLGHNVFENDSFLQRVIKTYKKIKKDSAMLLSGCSHLLHNKELMASLAESSFDVMLTDPFLPCSPIVAQYLSLPTVFFLHALPCSLEFEATQCPNPFSYVPRPLSSHSDHMTFLQRVKNMLIAFSQNFLCDVVYSPYATLASEFLQREVTVQDLLSSASVWLFRSDFVKDYPRPIMPNMVFVGGINCLHQNPLSQEFEAYINASGEHGIVVFSLGSMVSEIPEKKAMAIADALGKIPQTVLWRYTGTRPSNLANNTILVKWLPQNDLLGHPMTRAFITHAGSHGVYESICNGVPMVMMPLFGDQMDNAKRMETKGAGVTLNVLEMTSEDLENALKAVINDKSYKENIMRLSSLHKDRPVEPLDLAVFWVEFVMRHKGAPHLRPAAHDLTWYQDHSLDVIGFLLAVVLTVAFITFKCCAYGYRKCLGKKGRVKKAHKSKTH",36%,–,–,–,–
